The source of these data is patent US6127169.

This assay concerns the target specific cell surface receptors on mouse embryo fibroblasts.

B1: mouse β-galactoside binding protein (GBP), natural or recombinant, complexed or non-complexed form not told (ligand)
chain: ACGLVASNLNLKPGECLKVRGEVASDAKSFVLNLGKDSNNLCLHFNPRFNAHGDANTIVCNTKEDGTWGTEHREPAFPFQPGSITEVCITFDQADLTIKLPDGHEFKFPNRLNMEAINYMAADGDFKIKCVAFE
modifications: 125I label in the receptor binding assays
B1 returned a growth inhibition of synchronous mouse embryo fibroblasts (cell count) of 100%.
